The values that follow come from publication PMC9966725, “Preclinical Evaluation of a Lead Specific Chelator (PSC) Conjugated to Radiopeptides for ^203Pb and ^212Pb-Based Theranostics” (Pharmaceutics, 2023).

The conditions of series [1]: cited from earlier work. The text has this: Potential ambiguity in these predictions arises due to the nature of the ^212Pb decay series. The decay of ^212Pb to ^212Bi might lead to a decoupling of the progeny ^212Bi from the chelator, adding uncertainty to the biodistribution of radioactivity, especially the α-emitters (i.e., ^212Bi, ^212Po). Using particle and heavy ion transport code system (PHITS) modeling, we have shown that α-particles contribute to more than 90% of dose deposition in 10 µm diameter single cells and 1 cm diameter micro-metastasis, while the dose from β-particles becomes more significant ...

Series [2] is described as follows: Radiochemical stability of radiometal complex in saline, radio-iTLC. The series is classed as physicochemical. Conditions: 37 MBq mL^-1 in saline at room temperature for 24 h, regardless of PSC-PEG-T concentration (1, 3, 5 µM). On the procedure:
(§1) Using [^203Pb]Pb-PSC-PEG-T surrogate, radiochemical stability of [^203Pb]Pb-PSC-PEG-T in saline was monitored for 72 h. Similarly, single species of [^212Bi]Bi-PSC-PEG-T in saline were also monitored for 5 h (five half-lives of ^212Bi). [^203Pb]Pb-PSC-PEG-T and [^212Bi]Bi-PSC-PEG-T were radiolabeled and purified on Sep-Pak® C18 SPE columns as previously described. Next, 7.4 MBq mL^−1 of purified [^203Pb]Pb-PSC-PEG-T and [^212Bi]Bi-PSC-PEG-T were stored in saline supplemented with 5% EtOH and 1 mg mL^−1 sodium ascorbate for 72 h and 5 h, respectively, followed by analysis of radiochemical purity by radio-iTLC method. Then, radiochemical stability of [^212Pb]Pb-PSC-PEG-T and progeny [^212Bi]Bi-PSC-PEG-T were determined by radio-iTLC after storage of 37 MBq mL^−1 radiolabeled [^212Pb]Pb-PSC-PEG-T in saline for 24 h, and further confirmed by radio-HPLC analysis. In human serum, radiochemical stability of [^212Pb]Pb-PSC-PEG-T and progeny [^212Bi]Bi-PSC-PEG-T were determined after incubation of 3.7 MBq [^212Pb]Pb-PSC-PEG-T in 1 mL human serum at 37 °C for 24 h. In addition, metabolic stability of Pb-PSC-PEG-T radiopeptide in serum was determined by radio-HPLC after incubating [^203Pb]Pb-PSC-PEG-T surrogate in human serum for 55 h (five half-lives of ^212Pb). Following the incubation, serum protein was precipitated in ice-cold methanol (1:1.5 v/v) for 10 min, followed by centrifugation at 10,000× g for 10 min. The supernatant was collected and analyzed on radio-HPLC.
In radio-iTLC analysis, 0.1 M NaOAc with 1 mM DTPA was used as mobile phase for ^203Pb, ^212Pb, ^212Bi. Citric acid (0.1 M) was used as mobile phase for ^68Ga. Upon radio-iTLC analysis, 2 µL aliquot sample was spotted on the radio-iTLC strips (2 × 10 cm) and developed in the mobile phase. Radioactivity of ^203Pb and ^212Pb was measured on NaI(Tl) gamma spectroscope using 279 keV and 238 keV gamma peaks, respectively. Radioactivity of ^212Bi on radio-iTLC was measured on the Ludlum Model 3030 α-particle counter. Radio-HPLC analysis was conducted on Agilent 1260 (Agilent, Santa Clara, CA, USA). Binary mobile phases were applied to run 5–60% phase B (acetonitrile) over phase A (0.1% TFA in water) over 10 min on ZORBAX RR Eclipse XDB-C18 column (4.6 × 150 mm, 5 µm). Radioactivity of ^203Pb was measured on flow-through 105S-1 single channel radiation detector (Corroll & Ramsey, Fort Collins, CO, USA). To measure ^212Pb and ^212Bi activity on radio-HPLC, eluate was collected every 10 s on a HPLC fraction collector. Radioactivity of ^212Pb and ^212Bi in each collected eluate was measured on Cobra II automated gamma counter using 238 keV and 583 keV gamma peaks immediately after collection.

The nature of series [3]: Stability of radiopeptide in saline, radio-HPLC. The format is physicochemical. Particulars: 24 h storage in saline, C18, fractions counted on gamma counter. On the procedure:
as §1, with “Following the incubation, serum protein was precipitated in ice-cold methanol (1:1.5 v/v) for 10 min, followed by centrifugation at 10,000× g for 10 min.” left out, “radio-HPLC. […]” for “radio-HPLC.”

Another series has as its system AR42J xenograft. In words: in vivo. Also noted: species or system mice. Conditions: female, athymic nude, mouse, 24 h. As to the method: (§2) Biodistribution of [^212Pb]Pb-PSC-PEG-T and progeny ^212Bi^3+ was determined in two animal models, including female naïve CD-1Elite mice and athymic mice bearing AR42J tumor xenografts. SSTR2-positve AR42J cells were cultured in 10% Minimum Essential Medium (MEM) supplemented with 10% fetal bovine serum (FBS), 100 units mL^−1 penicillin, and 100 units mL^−1 streptomycin 37 °C in a humidified atmosphere (5% CO2). All animal studies were performed in accordance with the Guide for the Care and Use of Laboratory Animals, according to protocols approved by the University of Iowa Animal Care and Use Committee (protocol#1122453 approved on 16 February 2022). Xenograft of AR42J tumor was developed by subcutaneous (s.c.) injection of 1 × 10^6 cells at the left shoulder of female athymic nude mice. [^212Pb]Pb-PSC-PEG-T was radiolabeled and purified as described above, and kept at room temperature away from light for 3 h before injection, to allow progeny ^212Bi to approach equilibrium before injection. Upon assay, 74 kBq [^212Pb]Pb-PSC-PEG-T (peptide mass = 5–10 pmole) were injected via tail vein (n = 2–3). Animals were euthanized at designated time points (1, 5, 24 h for naïve CD-1 mice; 1, 4 h for AR42J-bearing mice). Organs of interest and tumors were collected, rinsed, and weighed. Radioactivity of ^212Pb and ^212Bi in each sample was measured on an automated gamma counter by 238 keV and 583 keV gamma peaks, respectively. ^212Bi was purified from the generator eluate on RE2 resin and collected in pH = 6 sodium acetate as described above. Biodistribution of free ^212Bi in normal organs was determined at 2 h post injection of 74 kBq ^212Bi in naïve female CD-1 Elite mice (n = 3). Radioactivity in samples was decay corrected and data were expressed as percent injected dose per gram of tissue (%ID/g). SPECT imaging of [^203Pb]Pb-PSC-PEG-T and [^212Pb]Pb-PSC-PEG-T in female athymic nude mice bearing AR42J xenograft (n = 2) was conducted on Bioemtech Gamma-Eye Imaging system (Bioemtech, Athens, Greece) with 30–500 keV dynamic range and 1.9 mm spatial resolution. Whole body 2D-SPECT imaging of [^203Pb]Pb-PSC-PEG-T and [^212Pb]Pb-PSC-PEG-T were collected at 3 h and 24 h (n = 2) post injection of 1.8 MBq [^203Pb]Pb-PSC-PEG-T (52 MBq nmole^−1) and 3.7 MBq [^212Pb]Pb-PSC-PEG-T (20 MBq nmole^−1). SPECT images were generated by acquiring ten 30 s projections. Imaging data were reconstructed and normalized to percent of injected dose (%ID) in tumor and kidneys based on region of interest (ROI) analysis on VISUAL-Eyes software (Bioemtech, Athens, Greece). Animals were euthanized after conclusion of the study at 24 h post injection. Tumor xenografts and organs of interest were collected and weighed. Radioactivity of ^203Pb or ^212Pb was determined on automated gamma counter and normalized to %ID/g.

In series [4] the test system is SSTR2-positive AR42J xenografts. In words: in vivo. Also noted: species or system mice. Conditions: female, athymic nude, mouse, iv, 74 kBq, 1 h. On the procedure:
as §2

As to `O=C(O)CN1CCN(CC(=O)O)CCN(CC(=O)O)CCN(CC(=O)O)CC1` [DOTA, 1,4,7,10-tetraazacyclododecane-1,4,7,10-tetraacetic acid], in series [1] (after β decay of ^212Pb), the “^212Bi^3+ released from chelator” value is recorded as “approximately 36%”.
As to `NC(=O)CN1CCN(CC(N)=O)CCN(CC(N)=O)CCN(CC(N)=O)CC1` [TCMC, 1,4,7,10-Tetrakis(carbamoylmethyl)-1,4,7,10-tetraazacyclododecane], the “^212Bi^3+ ejected from chelator” value in series [1] (TCMC chelator in an anti-CD37 radioimmunoconjugate) is listed as 16%.
Take `C[C@@H](O)[C@@H]1NC(=O)[C@H](CCCCN)NC(=O)[C@@H](Cc2c[nH]c3ccccc23)NC(=O)[C@H](Cc2ccc(O)cc2)NC(=O)[C@@H](NC(=O)[C@@H](Cc2ccccc2)NC(=O)CCOCCOCCNC(=O)CN2CCN(CC(=O)O)CCN(CC(N)=O)CCN(CC(=O)O)CC2)CSSC[C@@H](C(=O)N[C@H](CO)[C@@H](C)O)NC1=O` [[^212Pb]Pb-PSC-PEG-T] [metal not drawn]: the “^212Pb remained in PSC-PEG-T” value in series [2] was “More than 99.6%”. The “radiochemical purity (radiometal remained incorporated as radiopeptide)” value in series [3] is above 95%. Further, in the series on AR42J xenograft, the activity in lungs is given as 0.3 %ID/g. Moreover, in series [4], the “accumulation in adrenal glands” value is on record as 3.6 %ID/g, the accumulation in bones stood at 1.4 %ID/g, the accumulation in kidneys is listed as 28.1 %ID/g and the accumulation in liver was 0.8 %ID/g. This molecule had an accumulation in spleen in series [4] of 0.6 %ID/g.
